# Data: patent US6096504A, “Maize glutathione-S-transferase enzymes” (E. I. du Pont Nemours and Company, priority 1999, dated 2000)
# Assays:
# Format in all cases: biochemical
# Conditions in all cases: purified enzyme, 0.4 mM electrophilic substrate, 4 mM glutathione, 0.1 M MOPS pH 7.0
# [1] = GST conjugation of chlorimuron ethyl with glutathione (HPLC)
# Source text: (§1) The GST enzymes, expressed and purified as described in Example 5 were screened for their ability to metabolize a variety of substrates. Substrates tested included the three herbicide electrophilic substrates chlorimuron ethyl, alachlor, and Atrazine, and four model electrophilic substrates, 1-chloro-2,4-dinitrobenzene (CDNB), ethacrynic acid, t-stilbene oxide, and 1,2-epoxy-3-(p-nitrophenoxy)propane. The enzymes were purified as described in Example 5 and used in the following assay.
# (§2) For each enzyme, the conjugation reaction with each electrophilic substrate was performed by incubating 0.3 to 30 μg enzyme in 0.1 M MOPS (pH 7.0) containing 0.4 mM of the electrophilic substrate. The reaction was inititated by the addition of glutathione to a final concentration of 4 mM. After 5 to 30 min, the reaction was terminated by the addition of 45 μL acetonitrile, microfuged for 10 min to remove precipitated protein, and then the supernatent was removed and added to 65 μl of water. This sample was chromatographed on a Zorbax C8 reverse phase HPLC column (3 μm particle size, 6.2 mm×8 cm) using a combination of linear gradients (flow=1.5 mL/min) of 1% H3 PO4 in water (solvent A) and 1% H3 PO4 in acetonitrile. The gradient started with 5% solvent B, progressing from 5% to 75% solvent B between 1 and 10 min, and from 75% to 95% solvent B between 10 and 12 min. Control reactions without enzyme were performed to correct for uncatalyzed reaction. Quantitation of metabolites were based on an assumption that the extinction coefficient of the conjugate was identical to that of the electrophilic substrate.
# [2] = GST conjugation of CDNB with glutathione (HPLC)
# Source text: as §1, §2
# [3] = GST conjugation of t-stilbene oxide with glutathione (HPLC)
# Source text: as §1, §2
# [4] = GST conjugation of 1,2-epoxy-3-(p-nitrophenoxy)propane with glutathione (HPLC)
# Source text: as §1, §2
# [5] = GST conjugation of Atrazine with glutathione (HPLC)
# Source text: as §1, §2
# [6] = GST conjugation of alachlor with glutathione (HPLC)
# Source text: as §1, §2
# [7] = GST conjugation of ethacrynic acid with glutathione (HPLC)
# Source text: as §1, §2
Molecule,activity of enzyme with Chlorimuron-Ethyl [1],activity of enzyme with CDNB [2],activity of enzyme with t-Stilbene Oxide [3],"activity of enzyme with 1,2-epoxy-3-(p-nitrophenoxy)propane [4]",activity of enzyme with Atrazine [5],activity of enzyme with Alachlor [6],activity of enzyme with Ethacrynic Acid [7]
"m.15.5.d06.sk20: maize class II GST enzyme encoded by cDNA clone, expressed in E. coli (protein) MAEVEATVGRLMLYSYWRSSCSHRARIALNLKGVDYEYKAVNLLKGEQSDPEFVKLNPMKFVPALVDGSSVIGDSYAITLYLEDKYPEPPLLPQDLQKKALNHQIASIVASGIQPLHNLTVLRFIDQKVGAGESVLWTQQQIERGFTAIENLIQLKGCAGKYATGDEVQLADVFLAPQIYAAIERTKIDMSNYLTLARLHSEYMSHPAFEAALPGKQPDAPSSS",0.1 nmol/min/mg,45 nmol/min/mg,0.00 nmol/min/mg,1 nmol/min/mg,0.00 nmol/min/mg,0 nmol/min/mg,17 nmol/min/mg
"ceb5.pk0051.f8: maize class III GST enzyme encoded by cDNA clone, expressed in E. coli (protein) MAGETKKGLVLLDFWVSPFGQRCRIALAEKGIAYEYSEQELLGGAKSDILLRSNPVHKKIPVLLHDGRPVCESLVILEYLEEAFPEASPRLLPDAAYARAQARFWAAYSDKVYKAGTRLWKLRGDARAQARAEIVQVVRNLDGELGDKAFFGGEAFGFVDVALVPFVPWLPSYERYGDFSVAEIAPRLAAWARRCAQRESVARTLHPPEKVDEFINLLKKTYGIE",1.9 nmol/min/mg,2136 nmol/min/mg,0.02 nmol/min/mg,14 nmol/min/mg,0.08 nmol/min/mg,27 nmol/min/mg,117 nmol/min/mg
"cs1.pk0010.c5: maize class I GST enzyme encoded by cDNA clone, expressed in E. coli (protein) MAAGLQVFGQPASTDVARVLTCLFEKKLEFELVRIDTFKTHHRLPEFIRLRDPNGQVTFKHGDKTLVDSRDICRYVCNQFPNYGNKSLYGSGALERASIEQWLQAEAQNFGPPSSALVFQLAFVPHLSHLGVRQDPAVIAENEDKLKQVLDVYDEILSKNEYLAGDEFTLADLSHLPNSHYIVNTERGRKLFTNKKNVAKWYDRLSKRETWVQVVKMQKEHPGAFK",0.1 nmol/min/mg,30 nmol/min/mg,0.00 nmol/min/mg,0 nmol/min/mg,0.00 nmol/min/mg,0 nmol/min/mg,9 nmol/min/mg
"ceb5.pk0049.a11: maize class III GST enzyme encoded by cDNA clone, expressed in E. coli (protein) MAEEKKQGLQLLDFWVSPFGQRCRIALDEKGLAYEYLEQDLRNKSELLLRANPVHKKIPVLLHDGRPVCESLVIVQYLDEAFPEAAPALLPADPYARAQARFWADYVDKKLYDCGTRLWKLKGDGQAQARAEMVEILRTLEGALGDGPFFGGDALGFVDVALVPFTSWFLAYDRFGGVSVEKECPRLAAWAKRCAERPSVAKNLYPPEKVYDFVCGMKKRLGIE",0.4 nmol/min/mg,3939 nmol/min/mg,0.01 nmol/min/mg,30 nmol/min/mg,0.01 nmol/min/mg,18 nmol/min/mg,102 nmol/min/mg
"ceb1.pk0017.a5: maize class I GST enzyme encoded by cDNA clone, expressed in E. coli (protein) MAAPVTVYGPMLSPAVARVAACLLEKDVPFQIEPVDMSKGEHKSPSFLKLQPFGQVPAFKDHLTTVFESRAICRYICDQYADSGNQALFGKKEDGAVGRAAIEQWIESEGQSFNPPSLAIIFQLAFAPMMGRTTDLAVVEQNEAKLAKVLDVYDQRLGESQYFAGDDFSPGRPCALAQCRFPCEQNQQGWLDHREKESC",0.1 nmol/min/mg,15 nmol/min/mg,0.00 nmol/min/mg,0 nmol/min/mg,0.00 nmol/min/mg,0 nmol/min/mg,5 nmol/min/mg
"bms1.pk0023.g8: maize class I GST enzyme encoded by cDNA clone, expressed in E. coli (protein) MAPPMKVYGWAVSPWMARALVCLEEAGADYEIVPMSRCGGDHRRPEHLAKNPFGEIPVLEDGDLTLYQSRAIARYVLRKLKPELLREGDLEGSAMVDAWMEVEAHHMEPALWPIIRHSIIGQYVGRERDHQAVIDENLDRLRKVLPAYEARLSVCKYLVGDDISAADLCHFGFMRYFMATEYAGLVDAYPHVKAWWDALLARPSVQKVMAGMPPDFGYASGNIP",0.2 nmol/min/mg,15 nmol/min/mg,0.00 nmol/min/mg,0 nmol/min/mg,0.00 nmol/min/mg,0 nmol/min/mg,13 nmol/min/mg
